The assay addresses T1, yeast Smt3 (Smt3 6xHis) (yeast, UniProt Q12306 1-101 = SUMO).
T1 construct: Smt3 (SUMO), yeast; Uniformly 13C,15N labelled for the NMR experiments; also called SUMO; U-[13C,15N]; Smt3; source: E. coli BL21 (DE3)pLysS, purified (Ni-NTA)
Briefly: ITC; 2 mM peptide in the syringe, 150 μM or 300 μM Smt3 in the cell; 20 mM NaPi 100 mM NaCl pH 7.5, 10% DMSO, 25°C; single binding site model. Conditions: both partners purified. (Isothermal titration calorimetry measures the heat released or taken up as one component is titrated into another.)

Experimental findings from doi:10.1101/2025.07.08.663703, “Recruitment of Mre11 to recombination sites during meiosis” (bioRxiv, 2025) are described below.

T1 sequence (Q12306 whole entry): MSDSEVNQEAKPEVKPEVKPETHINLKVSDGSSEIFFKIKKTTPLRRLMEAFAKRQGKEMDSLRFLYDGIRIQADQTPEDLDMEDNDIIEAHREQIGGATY

On to ENDIIMVSTDE [synthetic Mre11-SIM3 peptide, wild type], for which binding was put at a Kd of 20 ± 10 µM.

As usually defined, the Kd is a measure of binding affinity in units of concentration. High values mean weaker binding, low ones tighter binding.
